Results as given in patent publication US12558435B2, “Transient inhibition of p53 in gene therapy” (Ospedale San Raffaele S.R.L., priority 2018, dated 2026).

Columns and labels:
CDKN2A = test: TaqMan assay of CDKN2A gene expression; format: cell-based, human; details: 24 hours post-editing; FIG. 16C-D
CDK2 = test: TaqMan assay of CDK2 gene expression; format: cell-based, human; details: 24 hours post-editing; FIG. 16A-B
human CD34+ cells [1] = test: Culture (subpopulation) composition of edited CD34+ cells by flow cytometry; format: cell-based
Protocol: For immunophenotypic analyses (performed on FACSCanto II; BD Pharmingen), we used the antibodies listed below. Single stained and Fluorescence Minus One stained cells were used as controls. LIVE/DEAD Fixable Dead Cell Stain Kit (Thermo Fisher), 7-aminoactinomycin (Sigma Aldrich), were included in the sample preparation for flow cytometry according to the manufacturer's instructions to exclude dead cells from the analysis. Cell sorting was performed using MoFlo XDP Cell Sorter (Beckman Coulter) or FACSAria Fusion (BD Biosciences).

human CD34+ cells [2] = format: cell-based
Protocol: CD34+ cells were either freshly purified from human CB after obtaining informed consent and upon approval by the Ospedale San Raffaele Bioethical Committee, or purchased frozen from Lonza. CD34+ cells were edited according to a previously optimized protocol (Schiroli et al. 2017 supra).
Briefly, 5×10^5 CD34+ cells/ml were stimulated in serum-free StemSpan medium (StemCell Technologies) supplemented with penicillin, streptomycin, glutamine, 1 μM SR-1 (Biovision), […] (STEMCell Technologies), 10 μM PGE2 added only at the beginning of the culture (Cayman), and human early-acting cytokines (SCF 100 ng/ml, Flt3-L 100 ng/ml, TPO 20 ng/ml, and IL-6 20 ng/ml; all purchased from Peprotech). After 3 days of prestimulation, cells were washed with PBS and electroporated using P3 Primary Cell 4D-Nucleofector X Kit and program EO-100 (Lonza). Cells were electroporated with 2.5-1.25 μM of RNPs.
Transduction with AAV6 was performed at a dose of 1-2×10^4 vg/cell 15′ after electroporation. GSE56 mRNA was utilized were indicated at a dose of 150 μg/ml. Gene editing efficiency was measured from cultured cells in vitro 3 days after electroporation by flow cytometry measuring the percentage of cells expressing the GFP marker or by digital droplet PCR analysis designing primers and probe on the junction between the vector sequence and the targeted locus and on control sequences utilized as normalizer as previously described (Schiroli et al. 2017 supra).
For HDR ddPCR, primers and probes were designed on the junction between the vector sequence and the targeted locus and on control sequences used for normalization (human TTC5 genes). Thermal conditions for annealing and extension were adjusted for each specific application as follows: AAVS1/Intron 1 IL2RG HDR 3′ integration junction ddPCR: 55° C. for 30 sec, 72° C. for 2 min. Primers and probes for PCR and ddPCR amplifications are shown below.
CD34^+ cells were purchased frozen from Lonza. CD34^+ cells were edited according to a previously optimised protocol (Schiroli, G. et al (2017) Sci Transl Med 9). Briefly, 1-5×10^5 CD34^+ cells/ml were stimulated in serum-free StemSpan medium (StemCell Technologies) supplemented with penicillin, streptomycin, glutamine, 1 μM of the arylhydrocarbon receptor antagonist SR-1 (Biovision), […] of the pyrimidoindole-derivative UM171 (STEMCell Technologies), 10 μM of the 15-hydroxy PGDH competitive inhibitor dmPGE-2 added only at the beginning of the culture (Cayman), and human early-acting cytokines (SCF 100 ng/ml, Flt3-L 100 ng/ml, TPO 20 ng/ml, and IL-6 20 ng/ml; all purchased from Peprotech). After 3 days of pre-stimulation, cells were washed with PBS and electroporated using P3 Primary Cell 4D-Nucleofector X Kit and program EO-100 (Lonza). Cells were electroporated with 1-1.2 μM of RNPs. Where specified, electroporation mixture was supplemented with Ad5-E4orf1, Ad5-E4orf6/7 and GSE56/Ad5-E4orf6/7 mRNAs, which were respectively utilized at doses of 120, 80 and 200 μg/ml, or Ad5-E1B55K and Ad5-E4orf6 mRNAs were used at 120 and 80 μg/ml. All other adenoviral protein variants were used at standard dose 120 μg/ml. Transduction with AAV-6 was performed 15 min post-electroporation at dose of 1-5×10^4 vg/cell. Where specified, CD34+ cells were stimulated for shorter time in culture (0, 24 or 48 hours) and edited as described above. Gene editing efficiency was measured from cultured cells in vitro at 4 days post-editing by flow cytometry measuring the percentage of cells expressing the GFP reporter gene or by digital droplet PCR analysis designing primers and probe on the junction between the vector sequence and the targeted locus and on control sequence utilised as normaliser as previously described (Schiroli, G. et al (2017) Sci Transl Med 9) and Schiroli et al., Cell Stem Cell 2019. […]

CDKN1A = test: TaqMan assay of CDKN1A gene expression; format: cell-based, human
Description: For gene expression analyses, total RNA was extracted using the RNeasy Plus Micro Kit (QIAGEN). cDNA was synthetized with SuperScript VILO IV cDNA Synthesis Kit (Invitrogen) and used for Q-PCR in a Viia7 Real-time PCR thermal cycler using TaqMan Gene Expression Assays (Applied Biosystems) mapping to CDKN1A, RPS27L, PHLDA3, APOBEC3H, and HPRT as normalizer. The relative expression of each gene was first normalized to HPRT expression and then represented as fold change relative to the mock-treated sample.

human CD34+ cells [3] = test: CFU-C / colony forming cell assay of edited CD34+ cells; format: cell-based; details: for erythroid and myeloid clonogenic output compared to standard protocol: FIG. 14G

B1: E4orf6/7: adenoviral protein from adenovirus serotype 5 E4 gene (SEQ ID No. 2), delivered as mRNA (protein)
chain: MTTSGVPFGMTLRPTRSRLSRRTPYSRDRLPPFETETRATILEDHPLLPECNTLTMHNAWTSPSPPVKQPQVGQQPVAQQLDSDMNLSELPGEFINITDERLARQETVWNITPKNMSVTHDMMLFKASRGERTVYSVCWEGGGRLNTRVL
modifications: delivered as mRNA; example amino acid sequence of Ad5-E4orf6/7
CDKN2A
  CDKN2A expression: significantly up-regulated
CDK2
  CDK2 expression: significantly up-regulated
Human CD34+ cells [1]; 96 hours, FIG. 14E
  CD90+ fraction in culture composition: significant skewing
Human CD34+ cells [1]; FIG. 10C
  culture composition: without any skew in the culture composition
Human CD34+ cells [2]; AAVS1, CB CD34+, vs standard, all AAV6 doses, FIG. 6B
  mean increase in the percentage of primitive HSPC expressing GFP (CD34+CD133+CD90+GFP+): 1.5 fold
Human CD34+ cells [2]; AAVS1, cells for NSG transplantation, FIG. 10B
  increase in the percentage of targeted CD90+ cells: 1.4 fold
Human CD34+ cells [2]; IL2RG, FIG. 14I
  editing efficiency (GFP expression) at IL2RG locus: significant editing efficiency increase
Human CD34+ cells [2]; digital PCR in bulk culture, FIG. 14D
  HDR edited alleles at AAVS1 locus: significantly increased
Human CD34+ cells [2]; discussion
  HDR-events integrations increase in AAVS1 locus of HSPCs: 1.5 fold
Human CD34+ cells [2]; human HSPC, FIG. 8B
  editing efficiency by molecular analyses on genomic DNA: reproducibly able to boost editing
Human CD34+ cells [2]; side-by-side, AAVS1, 4 days, FIG. 7A
  mean increase in the fraction of GFP+ cells compared to the standard: 1.45 fold
Human CD34+ cells [2]; total bulk and CD90+ fraction, AAVS1, FIG. 14K
  editing efficiency with editing at day 0 to day 2 post-thawing: editing efficiency was increased
Human CD34+ cells [2]; vs standard, FIG. 10D
  HDR-mediated integration (genomic DNA): increase levels of HDR-mediated integration
CDKN1A; 12 hours post-editing, FIG. 16F
  CDKN1A expression compared to the standard: about 2 fold
Human CD34+ cells [3]; FIG. 7C
  increase in number of myeloid and erythroid colony forming units (CFU) compared to standard: 2 fold
Human CD34+ cells [3]
  erythroid and myeloid clonogenic output compared to standard protocol: not affected

B2: GSE56: p53 dominant negative peptide (SEQ ID No. 9), transiently overexpressed from electroporated mRNA (protein)
chain: MDGWCPGRDRRTEEENFRKKEEHCPELPPGSAKRALPTSTSSSPQQKKKPLDGEYFTLKIRGRERFEMFRELNEALELKDARAAEESGDSRAHSSYPKIVS
modifications: amino acid sequence of GSE56
CDKN2A
  CDKN2A expression: still remained at basal level
CDK2
  CDK2 expression: remained always at basal level
Human CD34+ cells [1]; 3 days post editing, vs untreated controls, FIG. 3E
  relative composition of the hematopoietic populations: no change in relative composition
Human CD34+ cells [2]; AAVS1, most primitive compartment (CD34+133+90+ / CD90+), 96 hours, FIG. 14C
  increase of GFP expression compared to standard RNP+AAV6: 1.1 fold
Human CD34+ cells [2]; AAVS1 or IL2RG editing, 3 days
  HDR-mediated integration (GFP+ cells) in the CD34+ 133+ 90+ fraction, mean: 42%
Human CD34+ cells [2]; AAVS1 or IL2RG editing, 3 days, FIG. 3C
  overall efficiency of DNA repair: did not negatively impact overall efficiency of DNA repair
Human CD34+ cells [2]; AAVS1 or IL2RG editing, ddPCR, 3 days, FIG. 3C left
  HDR-mediated integration at the targeted locus: promoted HDR-mediated integration at the targeted locus
CDKN1A; 24 hours post-editing, FIG. 16E
  reduction of the amplitude of p21 (CDKN1A) activation compared to RNP+AAV6: about 3 fold
Human CD34+ cells [3]
  erythroid and myeloid clonogenic output compared to standard protocol: improved
Human CD34+ cells [3]; sorted populations, FIG. 3F
  erythroid and myeloid clonogenic output: increased particularly in CD90+ fraction
